From paper PMC8270960, “Native flagellar MS ring is formed by 34 subunits with 23-fold and 11-fold subsymmetries” (Nature Communications, 2021)
Changes are numbered by the printed parent chain. In names and notes the source's numbering stands. Several values for one entry are separate records, joined by “and”; a condition that tells them apart may be missing. Equal entries are not always repeated.

B1: FliF of the native flagellar basal body (native MS ring) (natural protein)
chain: MSATASTATQPKPLEWLNRLRANPRIPLIVAGSAAVAIVVAMVLWAKTPDYRTLFSNLSDQDGGAIVAQLTQMNIPYRFANGSGAIEVPADKVHELRLRLAQQGLPKGGAVGFELLDQEKFGISQFSEQVNYQRALEGELARTIETLGPVKSARVHLAMPKPSLFVREQKSPSASVTVTLEPGRALDEGQISAVVHLVSSAVAGLPPGNVTLVDQSGHLLTQSNTSGRDLNDAQLKFANDVESRIQRRIEAILSPIVGNGNVHAQVTAQLDFANKEQTEEHYSPNGDASKATLRSRQLNISEQVGAGYPGGVPGALSNQPAPPNEAPIATPPTNQQNAQNTPQTSTSTNSNSAGPRSTQRNETSNYEVDRTIRHTKMNVGDIERLSVAVVVNYKTLADGKPLPLTADQMKQIEDLTREAMGFSDKRGDTLNVVNSPFSAVDNTGGELPFWQQQSFIDQLLAAGRWLLVLVVAWILWRKAVRPQLTRRVEEAKAAQEQAQVRQETEEAVEVRLSKDEQLQQRRANQRLGAEVMSQRIREMSDNDPRVVALVIRQWMSNDHE
notes: source: endogenous, basal body purified from Salmonella HK1003 (sucrose density gradient); copies: 34
B2: full-length Salmonella FliF (MS ring, dataset 2, from pKOT105) (natural protein)
chain: B1 chain
notes: also called FliF overexpressed from another construct; FliF ring dataset 2; source: E. coli BL21 (DE3) carrying pKOT105, MS ring purified from the membrane fraction (sucrose gradient, LMNG); copies: 34
B3: FliF_(1-503) (domain or fragment)
chain: MSATASTATQPKPLEWLNRLRANPRIPLIVAGSAAVAIVVAMVLWAKTPDYRTLFSNLSDQDGGAIVAQLTQMNIPYRFANGSGAIEVPADKVHELRLRLAQQGLPKGGAVGFELLDQEKFGISQFSEQVNYQRALEGELARTIETLGPVKSARVHLAMPKPSLFVREQKSPSASVTVTLEPGRALDEGQISAVVHLVSSAVAGLPPGNVTLVDQSGHLLTQSNTSGRDLNDAQLKFANDVESRIQRRIEAILSPIVGNGNVHAQVTAQLDFANKEQTEEHYSPNGDASKATLRSRQLNISEQVGAGYPGGVPGALSNQPAPPNEAPIATPPTNQQNAQNTPQTSTSTNSNSAGPRSTQRNETSNYEVDRTIRHTKMNVGDIERLSVAVVVNYKTLADGKPLPLTADQMKQIEDLTREAMGFSDKRGDTLNVVNSPFSAVDNTGGELPFWQQQSFIDQLLAAGRWLLVLVVAWILWRKAVRPQLTRRVEEAKAAQEQAQVRQE
notes: also called C-terminally-truncated FliF fragment with 57 residues truncated; copies: 33
B4: FliF(I252A), overexpressed in E. coli (natural protein)
chain: B1 chain with I252A
notes: source: E. coli, overexpressed, MS rings purified
B5: FliF(L253A), overexpressed in E. coli (natural protein)
chain: B1 chain with L253A
notes: as for B4
B6: FliF(V266A), overexpressed in E. coli (natural protein)
chain: B1 chain with V266A
notes: as for B4
B7: FliF(I252R), overexpressed in E. coli (natural protein)
chain: B1 chain with I252R
notes: as for B4
B8: FliF(L253R), overexpressed in E. coli (natural protein)
chain: B1 chain with L253R
notes: as for B4
B9: FliF(V266R), overexpressed in E. coli (natural protein)
chain: B1 chain with V266R
notes: as for B4
B10: FliG of the C ring of the native basal body (wild-type, CCW motor) (natural protein)
chain: MSNLSGTDKSVILLMTIGEDRAAEVFKHLSTREVQALSTAMANVRQISNKQLTDVLSEFEQEAEQFAALNINANEYLRSVLVKALGEERASSLLEDILETRDTTSGIETLNFMEPQSAADLIRDEHPQIIATILVHLKRSQAADILALFDERLRHDVMLRIATFGGVQPAALAELTEVLNGLLDGQNLKRSKMGGVRTAAEIINLMKTQQEEAVITAVREFDGELAQKIIDEMFLFENLVDVDDRSIQRLLQEVDSESLLIALKGAEPPLREKFLRNMSQRAADILRDDLANRGPVRLSQVENEQKAILLIVRRLAETGEMVIGSGEDTYV
notes: source: endogenous, basal body purified from Salmonella HK1003 (sucrose density gradient)
B11: full-length Salmonella FliF (MS ring, dataset 1, from pKOT112) (natural protein)
chain: B1 chain
notes: also called MS ring formed by full-length FliF; FliF ring dataset 1; source: E. coli BL21 (DE3) carrying pKOT112, MS ring purified from the membrane fraction (sucrose gradient, LMNG); copies: 34

Assays:
[1] = biological target: FliG ΔPAA of the C ring of the CW-locked basal body (Salmonella enterica serovar Typhimurium (in TM022)) (UniProt P0A1J9); assay: cryo-EM structure; end-on view cryoEM images of the C ring of purified wild-type (CCW) and CW mutant basal bodies; rotational symmetry of single particles by autocorrelation and Fourier transformation (98 and 75 particles)
[2] = biological target: the molecule itself; assay: cryo-EM structure; 2D class averages of end-on views of the basal body (rivet) purified from Salmonella HK1003; rotational symmetry by autocorrelation and Fourier transformation; assembly formed in cells, purified as a whole
[3] = biological target: the molecule itself; assay: cryo-EM structure; MS ring of full-length FliF (dataset 2, pKOT105); 3D refinement with C1, C11 and C34 symmetry (12, 9.0 and 7.4 Å)
[4] = biological target: the molecule itself; assay: cryo-EM structure; rings of FliF_(1-503) and FliF_(1-456) in Buffer S with 0.1% Triton-X100; 3D classification and reconstruction with C1 symmetry
[5] = biological target: the molecule itself; assay: negative-stain EM; MS rings purified from E. coli cells overexpressing mutant variants of FliF, observed by negative staining EM
[6] = biological target: B1; assay: cryo-EM structure; 2D class averages of end-on views of the basal body (rivet) purified from Salmonella HK1003; rotational symmetry by autocorrelation and Fourier transformation; assembly formed in cells, purified as a whole; conditions: both partners purified
[7] = biological target: the molecule itself; assay: cryo-EM structure; MS ring of full-length FliF (dataset 1, pKOT112) in Buffer S with 0.05% LMNG; 2D classes and 3D refinement with C34 symmetry, 3.7 Å

Molecule: FliG ΔPAA of the C ring of the CW-locked basal body (from UniProt P0A1J9 1-331) (natural protein)
- stoichiometry N [1]: 33 -fold to 36 -fold (2×) and 34 -fold

Molecule: B1
- stoichiometry N [2]: 34 subunits

Molecule: B2
- stoichiometry N [3]: 34 subunits

Molecule: B3
- stoichiometry N [4]: 33 -fold

Molecule: B4
- binding result [5]: binds

Molecule: B5
- binding result [5]: binds

Molecule: B6
- binding result [5]: binds

Molecule: B7
- binding result [5]: binds

Molecule: B8
- binding result [5]: binds

Molecule: B9
- binding result [5]: binds

Molecule: B10
- binding result [6]: binds

Molecule: B11
- stoichiometry N [7]: 34 subunits
